Reference: US20130315910A1 (Xencor, published 2013)

T1: human FcγRIIb receptor protein (R&D Systems) (human, UniProt P31994 46-217)
T1 construct: Bought protein injected over captured antibody in Biacore; also called CD32b
T1 sequence (looked up): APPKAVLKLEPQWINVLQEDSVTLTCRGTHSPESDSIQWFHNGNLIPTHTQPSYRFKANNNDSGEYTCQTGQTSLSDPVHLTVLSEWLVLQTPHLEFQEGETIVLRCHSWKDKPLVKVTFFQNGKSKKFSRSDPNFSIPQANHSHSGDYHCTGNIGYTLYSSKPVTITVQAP

T2: human FcγRIIa (131R), His- and GST-tagged (human, UniProt P12318 34-217)
T2 construct: Expressed in HEK293T cells, purified by nickel chromatography; also called R131 FcγRIIa; not shown: 6xHis and GST tags of the pTT5 vector
T2 sequence (looked up): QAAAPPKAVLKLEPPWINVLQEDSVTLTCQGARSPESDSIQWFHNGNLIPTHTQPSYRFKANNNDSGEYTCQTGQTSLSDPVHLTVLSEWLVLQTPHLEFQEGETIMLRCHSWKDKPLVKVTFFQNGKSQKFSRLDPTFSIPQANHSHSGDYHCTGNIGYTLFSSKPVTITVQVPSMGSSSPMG

T3: human FcγRIIa (131H), His- and GST-tagged (human, UniProt P12318 34-217)
T3 construct: also called H131 FcγRIIa; HIIa; not shown: 6xHis and GST tags of the pTT5 vector
T3 sequence (looked up): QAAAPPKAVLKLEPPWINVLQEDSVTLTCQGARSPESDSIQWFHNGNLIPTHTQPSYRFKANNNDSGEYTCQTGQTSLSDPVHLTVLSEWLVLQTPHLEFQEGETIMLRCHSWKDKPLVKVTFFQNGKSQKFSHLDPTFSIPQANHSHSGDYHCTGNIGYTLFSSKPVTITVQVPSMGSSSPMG


Key:
Experiment in all cases: SPR
[1] = molecular target: T1, human FcγRIIb receptor protein (R&D …)
[2] = molecular target: T4, human FcγRI receptor protein (R&D Systems) (human, UniProt P12314 16-288)
T4 construct: also called soluble FcγRI; solFcγRI

[3] = molecular target: T2, human FcγRIIa (131R), His- and …
[4] = molecular target: T3, human FcγRIIa (131H), His- and …
[5] = molecular target: T5, human FcγRIIIa (158V), His- and GST-tagged (human, UniProt P08637 17-208)
T5 construct: also called V158 FcγRIIIa; VIIIa; not shown: 6xHis and GST tags of the pTT5 vector
T5 sequence (P08637 17-208 F176V): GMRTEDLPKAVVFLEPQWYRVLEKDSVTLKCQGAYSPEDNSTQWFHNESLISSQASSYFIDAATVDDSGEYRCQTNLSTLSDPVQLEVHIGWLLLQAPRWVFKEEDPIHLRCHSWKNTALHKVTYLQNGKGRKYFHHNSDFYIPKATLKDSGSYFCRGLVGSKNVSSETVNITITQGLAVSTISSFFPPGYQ

T4 sequence (P12314 16-288 limits assumed): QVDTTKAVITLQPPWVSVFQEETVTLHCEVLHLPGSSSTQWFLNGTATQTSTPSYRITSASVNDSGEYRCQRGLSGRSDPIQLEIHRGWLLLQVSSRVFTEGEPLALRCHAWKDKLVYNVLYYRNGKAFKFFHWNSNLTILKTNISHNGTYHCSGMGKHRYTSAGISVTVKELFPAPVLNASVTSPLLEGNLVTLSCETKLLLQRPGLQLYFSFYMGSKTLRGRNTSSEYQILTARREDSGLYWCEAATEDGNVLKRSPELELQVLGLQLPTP

| Binder | Fold vs WT IgG1 [1] [fold] | Kd [1] [nM] | Fold vs WT IgG1 [2] [fold] | Kd [2] [nM] | Fold vs WT IgG1 [3] [fold] | Kd [3] [nM] | Fold vs WT IgG1 [4] [fold] | Kd [4] [nM] | binding result [5] | Fold vs WT IgG1 [5] [fold] | Kd [5] [nM] | binding result [2] | binding result [4] |
| --- | --- | --- | --- | --- | --- | --- | --- | --- | --- | --- | --- | --- | --- |
| L235D/S267E/L328F (antibody, human IgG1, kappa, HuAM4G7 anti-CD19 IgG1 (m1) with these Fc substitutions, EU index; copies: 2 + 2) heavy: EVQLVESGGGLVKPGGSLKLSCAASGYTFTSYVMHWVRQAPGKGLEWIGYINPYNDGTKYNEKFQGRVTISSDKSISTAYMELSSLRSEDTAMYYCARGTYYYGTRVFDYWGQGTLVTVSSASTKGPSVFPLAPSSKSTSGGTAALGCLVKDYFPEPVTVSWNSGALTSGVHTFPAVLQSSGLYSLSSVVTVPSSSLGTQTYICNVNHKPSNTKVDKKVEPKSCDKTHTCPPCPAPELDGGPSVFLFPPKPKDTLMISRTPEVTCVVVDVEHEDPEVKFNWYVDGVEVHNAKTKPREEQYNSTYRVVSVLTVLHQDWLNGKEYKCKVSNKAFPAPIEKTISKAKGQPREPQVYTLPPSREEMTKNQVSLTCLVKGFYPSDIAVEWESNGQPENNYKTTPPVLDSDGSFFLYSKLTVDKSRWQQGNVFSCSVMHEALHNHYTQKSLSLSPGK light: DIVMTQSPATLSLSPGERATLSCRSSKSLQNVNGNTYLYWFQQKPGQSPQLLIYRMSNLNSGVPDRFSGSGSGTEFTLTISSLEPEDFAVYYCMQHLEYPITFGAGTKLEIKRTVAAPSVFIFPPSDEQLKSGTASVVCLLNNFYPREAKVQWKVDNALQSGNSQESVTEQDSKDSTYSLSSTLTLSKADYEKHKVYACEVTHQGLSSPVTKSFNRGEC | 80.4 | 18.2 | 0.00057 | 573 | 133 | 6.45 | 0.275 | 2350 | no binding | – | – | – | – |
| L235Y/S267E/H268E (antibody, human IgG1, kappa, HuAM4G7 anti-CD19 IgG1 (m1) with these Fc substitutions, EU index; copies: 2 + 2) heavy: EVQLVESGGGLVKPGGSLKLSCAASGYTFTSYVMHWVRQAPGKGLEWIGYINPYNDGTKYNEKFQGRVTISSDKSISTAYMELSSLRSEDTAMYYCARGTYYYGTRVFDYWGQGTLVTVSSASTKGPSVFPLAPSSKSTSGGTAALGCLVKDYFPEPVTVSWNSGALTSGVHTFPAVLQSSGLYSLSSVVTVPSSSLGTQTYICNVNHKPSNTKVDKKVEPKSCDKTHTCPPCPAPELYGGPSVFLFPPKPKDTLMISRTPEVTCVVVDVEEEDPEVKFNWYVDGVEVHNAKTKPREEQYNSTYRVVSVLTVLHQDWLNGKEYKCKVSNKALPAPIEKTISKAKGQPREPQVYTLPPSREEMTKNQVSLTCLVKGFYPSDIAVEWESNGQPENNYKTTPPVLDSDGSFFLYSKLTVDKSRWQQGNVFSCSVMHEALHNHYTQKSLSLSPGK light: DIVMTQSPATLSLSPGERATLSCRSSKSLQNVNGNTYLYWFQQKPGQSPQLLIYRMSNLNSGVPDRFSGSGSGTEFTLTISSLEPEDFAVYYCMQHLEYPITFGAGTKLEIKRTVAAPSVFIFPPSDEQLKSGTASVVCLLNNFYPREAKVQWKVDNALQSGNSQESVTEQDSKDSTYSLSSTLTLSKADYEKHKVYACEVTHQGLSSPVTKSFNRGEC | 69.9 | 21 | 0.0103 | 32.1 | 48.2 | 17.8 | 0.157 | 4130 | – | 0.428 | 447 | – | – |
| L235Y/G236D/S267E (antibody, human IgG1, kappa, HuAM4G7 anti-CD19 IgG1 (m1) with these Fc substitutions, EU index; copies: 2 + 2) heavy: EVQLVESGGGLVKPGGSLKLSCAASGYTFTSYVMHWVRQAPGKGLEWIGYINPYNDGTKYNEKFQGRVTISSDKSISTAYMELSSLRSEDTAMYYCARGTYYYGTRVFDYWGQGTLVTVSSASTKGPSVFPLAPSSKSTSGGTAALGCLVKDYFPEPVTVSWNSGALTSGVHTFPAVLQSSGLYSLSSVVTVPSSSLGTQTYICNVNHKPSNTKVDKKVEPKSCDKTHTCPPCPAPELYDGPSVFLFPPKPKDTLMISRTPEVTCVVVDVEHEDPEVKFNWYVDGVEVHNAKTKPREEQYNSTYRVVSVLTVLHQDWLNGKEYKCKVSNKALPAPIEKTISKAKGQPREPQVYTLPPSREEMTKNQVSLTCLVKGFYPSDIAVEWESNGQPENNYKTTPPVLDSDGSFFLYSKLTVDKSRWQQGNVFSCSVMHEALHNHYTQKSLSLSPGK light: DIVMTQSPATLSLSPGERATLSCRSSKSLQNVNGNTYLYWFQQKPGQSPQLLIYRMSNLNSGVPDRFSGSGSGTEFTLTISSLEPEDFAVYYCMQHLEYPITFGAGTKLEIKRTVAAPSVFIFPPSDEQLKSGTASVVCLLNNFYPREAKVQWKVDNALQSGNSQESVTEQDSKDSTYSLSSTLTLSKADYEKHKVYACEVTHQGLSSPVTKSFNRGEC | 25 | 58.7 | – | – | 9.67 | 88.8 | – | – | no binding | – | – | no binding | no binding |
| L235Y/S239D/S267E (antibody, human IgG1, kappa, HuAM4G7 anti-CD19 IgG1 (m1) with these Fc substitutions, EU index; copies: 2 + 2) heavy: EVQLVESGGGLVKPGGSLKLSCAASGYTFTSYVMHWVRQAPGKGLEWIGYINPYNDGTKYNEKFQGRVTISSDKSISTAYMELSSLRSEDTAMYYCARGTYYYGTRVFDYWGQGTLVTVSSASTKGPSVFPLAPSSKSTSGGTAALGCLVKDYFPEPVTVSWNSGALTSGVHTFPAVLQSSGLYSLSSVVTVPSSSLGTQTYICNVNHKPSNTKVDKKVEPKSCDKTHTCPPCPAPELYGGPDVFLFPPKPKDTLMISRTPEVTCVVVDVEHEDPEVKFNWYVDGVEVHNAKTKPREEQYNSTYRVVSVLTVLHQDWLNGKEYKCKVSNKALPAPIEKTISKAKGQPREPQVYTLPPSREEMTKNQVSLTCLVKGFYPSDIAVEWESNGQPENNYKTTPPVLDSDGSFFLYSKLTVDKSRWQQGNVFSCSVMHEALHNHYTQKSLSLSPGK light: DIVMTQSPATLSLSPGERATLSCRSSKSLQNVNGNTYLYWFQQKPGQSPQLLIYRMSNLNSGVPDRFSGSGSGTEFTLTISSLEPEDFAVYYCMQHLEYPITFGAGTKLEIKRTVAAPSVFIFPPSDEQLKSGTASVVCLLNNFYPREAKVQWKVDNALQSGNSQESVTEQDSKDSTYSLSSTLTLSKADYEKHKVYACEVTHQGLSSPVTKSFNRGEC | 116 | 12.6 | 1.07 | 0.307 | 98.9 | 8.68 | 1.05 | 617 | – | 2.6 | 73.5 | – | – |
| L235I (antibody, human IgG1, kappa, HuAM4G7 anti-CD19 IgG1 (m1) with this Fc substitution, EU index; copies: 2 + 2) heavy: not shown light: DIVMTQSPATLSLSPGERATLSCRSSKSLQNVNGNTYLYWFQQKPGQSPQLLIYRMSNLNSGVPDRFSGSGSGTEFTLTISSLEPEDFAVYYCMQHLEYPITFGAGTKLEIKRTVAAPSVFIFPPSDEQLKSGTASVVCLLNNFYPREAKVQWKVDNALQSGNSQESVTEQDSKDSTYSLSSTLTLSKADYEKHKVYACEVTHQGLSSPVTKSFNRGEC | 0.908 | 1620 | 0.0197 | 16.7 | 0.666 | 1290 | 0.181 | 3580 | – | 0.903 | 212 | – | – |
| L235Y/S267E/L328F (antibody, human IgG1, kappa, HuAM4G7 anti-CD19 IgG1 (m1) with these Fc substitutions, EU index; copies: 2 + 2) heavy: EVQLVESGGGLVKPGGSLKLSCAASGYTFTSYVMHWVRQAPGKGLEWIGYINPYNDGTKYNEKFQGRVTISSDKSISTAYMELSSLRSEDTAMYYCARGTYYYGTRVFDYWGQGTLVTVSSASTKGPSVFPLAPSSKSTSGGTAALGCLVKDYFPEPVTVSWNSGALTSGVHTFPAVLQSSGLYSLSSVVTVPSSSLGTQTYICNVNHKPSNTKVDKKVEPKSCDKTHTCPPCPAPELYGGPSVFLFPPKPKDTLMISRTPEVTCVVVDVEHEDPEVKFNWYVDGVEVHNAKTKPREEQYNSTYRVVSVLTVLHQDWLNGKEYKCKVSNKAFPAPIEKTISKAKGQPREPQVYTLPPSREEMTKNQVSLTCLVKGFYPSDIAVEWESNGQPENNYKTTPPVLDSDGSFFLYSKLTVDKSRWQQGNVFSCSVMHEALHNHYTQKSLSLSPGK light: DIVMTQSPATLSLSPGERATLSCRSSKSLQNVNGNTYLYWFQQKPGQSPQLLIYRMSNLNSGVPDRFSGSGSGTEFTLTISSLEPEDFAVYYCMQHLEYPITFGAGTKLEIKRTVAAPSVFIFPPSDEQLKSGTASVVCLLNNFYPREAKVQWKVDNALQSGNSQESVTEQDSKDSTYSLSSTLTLSKADYEKHKVYACEVTHQGLSSPVTKSFNRGEC | 187 | 7.83 | 0.00436 | 75.5 | 171 | 5.02 | 0.758 | 853 | no binding | – | – | – | – |
